Numbering of substitutions follows the chain as printed.
B1: oa CS06 (antibody, V domains shown)
VH: QVQLQQSGAEVKKPGSSAKVSCKASGGTFSSNAISWVRQAPGQGLEWMGGIIPIFGTAIYAQKFQGRVTITADESTSTAYMELSSLRSEDTAVYYCARDQRGYYYYYYYGMDVWGQGTTVTVSS
VL: QLVLTQSPSVSVAPGKTARITCGGNNIRNVGVHWYQKKPGQAPILVVYDDDDRPSGVPERFSGSNSGNTATLTISRVEAGDEADYYCQVWDSATDQRVFGGGTKLTVLG
notes: one-armed (monovalent) anti-c-MET SEED molecule; also called one-armed CS06
B2: oa B10v5 (antibody, V domains shown)
VH: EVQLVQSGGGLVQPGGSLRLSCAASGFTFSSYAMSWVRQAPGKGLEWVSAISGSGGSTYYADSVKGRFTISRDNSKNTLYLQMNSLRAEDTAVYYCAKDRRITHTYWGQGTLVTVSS
VL: EPVLTQPPSVSVAPGETATIPCGGDSLGSKIVHWYQQRPGQAPLLVVYDDAARPSGIPERFSGSKSGTTATLTISSVEAGDEADYFCQVYDYHSDVEVFGGGTKLTVLG
notes: one-armed (monovalent) anti-c-MET SEED molecule; also called one-armed B10v5
B3: oa B10 (antibody, V domains shown)
VH: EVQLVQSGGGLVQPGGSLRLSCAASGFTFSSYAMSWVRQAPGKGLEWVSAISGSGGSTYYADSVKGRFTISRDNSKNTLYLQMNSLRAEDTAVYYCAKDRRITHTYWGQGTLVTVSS
VL: QSVLTQPPSTSGTPGQRVTISCFGSSSNVGVNTVNWYRQLPGTAPKLLIYDNNLRPSGVPERFSGSKSGTSASLAITGLQAEDEGDYYCQSYDSSLSDVVFGGGTKLTVLG
notes: one-armed (monovalent) anti-c-MET SEED molecule; also called one-armed B10
B4: oa 425 (antibody, V domains shown)
VH: QVQLVQSGAEVKKPGASVKVSCKASGYTFTSHWMHWVRQAPGQGLEWIGEFNPSNGRTNYNEKFKSKATMTVDTSTNTAYMELSSLRSEDTAVYYCASRDYDYDGRYFDYWGQGTLVTVSS
VL: DIQMTQSPSSLSASVGDRVTITCSASSSVTYMYWYQQKPGKAPKLLIYDTSNLASGVPSRFSGSGSGTDYTFTISSLQPEDIATYYCQQWSSHIFTFGQGTKVEIKR
notes: one-armed (monovalent) anti-EGFR SEED molecule
B5: oa 225-H (antibody, V domains shown)
VH: EVQLVQSGAEVKKPGASVKVSCKASGFSLTNYGVHWMRQAPGQGLEWIGVIWSGGNTDYNTPFTSRVTITSDKSTSTAYMELSSLRSEDTAVYYCARALDYYDYEFAYWGQGTLVTVSS
VL: DIQMTQSPSSLSASVGDRVTITCRASQSIGTNIHWYQQKPGKAPKLLIKYASESISGVPSRFSGSGYGTDFTLTISSLQPEDVATYYCQQNNEWPNTFGQGTKVEIK
notes: as for B4
B6: CS06x225-H (bispecific c-MET x EGFR SEEDbody) (bispecific antibody, V domains shown)
VH 1: B1 VH
VL 1: QLVLTQSPSVSVAPGKTARITCGGNNIRNVGVHWYQKKPGQAPILVVYDDDDRPSGVPERFSGSNSGNTATLTISRVEAGDEADYYCQVWDSATDQRVFGGGTKLTVLGQPKAG
VH 2: B5 VH
VL 2: B5 VL
notes: The rest is a SEEDbody: IgG1 hinge-CH2-SEED CH3 (AG/GA)
B7: B10v5x225-L (bispecific antibody, V domains shown)
VL (c-MET arm): EPVLTQPPSVSVAPGETATIPCGGDSLGSKIVHWYQQRPGQAPLLVVYDDAARPSGIPERFSGSKSGTTATLTISSVEAGDEADYFCQVYDYHSDVEVFGGGTKLTVLGQPKAA
VH (c-MET arm): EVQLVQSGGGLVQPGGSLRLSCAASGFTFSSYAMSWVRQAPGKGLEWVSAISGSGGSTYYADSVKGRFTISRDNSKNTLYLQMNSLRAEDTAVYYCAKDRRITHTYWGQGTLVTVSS
VL (EGFR arm): B5 VL with E93N, N96T
VH (EGFR arm): B5 VH with S53R, D100T
notes: c-MET x EGFR SEED bispecific
B8: B10v5x225-H (bispecific c-MET x EGFR SEEDbody) (bispecific antibody, V domains shown)
VH 1: not shown
VL 1: B7 VL (c-MET arm)
VH 2: B5 VH
VL 2: B5 VL
notes: hu225-H); SEEDbody format (IgG1 hinge-CH2-SEED CH3)

biological target: T1, c-MET on cells (human, UniProt P08581); test: flow cytometry, MKN-45 cells (c-MET+++ EGFR++)
T1 construct: endogenous receptor on the cell surface; for A549 cells m4 is used; also called HGFR; on NCI-H441, EBC-1, A431, MKN-45, SK-MEL2 or HepG2 cells (cell line under assay)

Row | MFI at 100 nM | Binder
1 | 1490 | B1
2 | 1500 | B2
3 | 916 | B3

biological target: T2, EGFR on cells (human, UniProt P00533); test: flow cytometry, MKN-45 cells (c-MET+++ EGFR++)
T2 construct: endogenous receptor on the cell surface; for A549 cells m5 is used; also called on NCI-H441, EBC-1, A431, MKN-45, HepG2 or T47D cells (cell line under assay)

Row | MFI at 100 nM | Binder
4 | 184 | B4
5 | 199 | B5

biological target: T3, c-MET and EGFR co-expressed on cells (human, UniProt P08581;P00533); test: flow cytometry, MKN-45 cells (c-MET+++ EGFR++)
T3 construct: endogenous receptor on the cell surface; not a complex: two separate receptors on the same cell; used as target only for bispecific c-MET x EGFR molecules, whose cell staining cannot be split between the two arms; also called cells that carry both receptors: NCI-H441, EBC-1, A431, MKN-45, A549, HepG2 (cell line under assay)

Row | MFI at 100 nM | Binder
6 | 1550 | B6
7 | 1220 | B7
8 | 1330 | B8

biological target: T1, c-MET on cells; test: flow cytometry on NCI-H441 cells (express c-MET and EGFR), FITC anti-human Fc, n=3

Row | EC50 (read off the curve) [nM] | Binder
9 | ~0.3 | B1
10 | ~1 | B2

biological target: T2, EGFR on cells; test: as above

Row | EC50 (read off the curve) [nM] | Binder
11 | ~0.4 | B5

biological target: T3, c-MET and EGFR co-expressed on cells; test: as above

Row | EC50 (read off the curve) [nM] | Binder
12 | ~0.3 | B6
13 | ~0.5 | B8

biological target: T1, c-MET on cells; test: flow cytometry, EBC-1 cells (c-MET+++ EGFR++)

Row | MFI at 100 nM | Binder
14 | 2630 | B1
15 | 2310 | B2
16 | 952 | B3

biological target: T2, EGFR on cells; test: flow cytometry, EBC-1 cells (c-MET+++ EGFR++)

Row | MFI at 100 nM | Binder
17 | 212 | B4
18 | 287 | B5

biological target: T3, c-MET and EGFR co-expressed on cells; test: flow cytometry, EBC-1 cells (c-MET+++ EGFR++)

Row | MFI at 100 nM | Binder
19 | 1560 | B6
20 | 2040 | B7
21 | 2060 | B8

biological target: T1, c-MET on cells; test: flow cytometry, A431 cells (c-MET+ EGFR+++)

Row | MFI at 100 nM | Binder
22 | 37 | B1
23 | 49 | B2
24 | 103 | B3

biological target: T2, EGFR on cells; test: flow cytometry, A431 cells (c-MET+ EGFR+++)

Row | MFI at 100 nM | Binder
25 | 1150 | B4
26 | 2230 | B5

biological target: T3, c-MET and EGFR co-expressed on cells; test: flow cytometry, A431 cells (c-MET+ EGFR+++)

Row | MFI at 100 nM | Binder
27 | 1860 | B6
28 | 847 | B7
29 | 1760 | B8

biological target: T1, c-MET on cells; test: flow cytometry, HepG2 cells (c-MET+ EGFR+)

Row | MFI at 100 nM | Binder
30 | 296 | B1
31 | 399 | B2
32 | 69 | B3

biological target: T2, EGFR on cells; test: flow cytometry, HepG2 cells (c-MET+ EGFR+)

Row | MFI at 100 nM | Binder
33 | 50 | B4
34 | 53 | B5

biological target: T3, c-MET and EGFR co-expressed on cells; test: flow cytometry, HepG2 cells (c-MET+ EGFR+)

Row | MFI at 100 nM | Binder
35 | 198 | B6
36 | 451 | B7
37 | 352 | B8

biological target: T4, EGFR (soluble extracellular domain) (human, UniProt P00533); test: BLI (Octet), antibody on anti-human Fc biosensors, soluble EGFR ECD as analyte
T4 construct: soluble extracellular domain; also called Human EGFR extracellular domain, R&D Systems 1095-ER

Row | Kd [nM] | koff [s⁻¹] | kon [M⁻¹ s⁻¹] | Binder
38 | 22 | 0.012 | 530000 | B4
39 | 0.14 | 0.00049 | 3.6e+06 | B5
40 | 0.12 | 0.00039 | 3.3e+06 | B6
41 | 0.15 | 0.00053 | 3.5e+06 | B8

biological target: T5, biotinylated recombinant human c-MET ECD (HGFR extracellular domain) (human, UniProt P08581 25-932, biotinylated (sites not given)); test: BLI (Octet), antibody on anti-human Fc biosensors, soluble c-MET ECD as analyte
T5 construct: extracellular domain; also called human c-MET ECD-His

Row | Kd [nM] | koff [s⁻¹] | kon [M⁻¹ s⁻¹] | Binder
42 | 0.19 | 0.00021 | 1.1e+06 | B1
43 | 0.38 | 0.00016 | 400000 | B2
44 | 12 | 0.0012 | 100000 | B3
45 | 0.12 | 0.00039 | 3.3e+06 | B6
46 | 0.36 | 0.00015 | 400000 | B8

biological target: T5, biotinylated recombinant human c-MET …; test: HGF competition ELISA: HGF on the plate, biotinylated c-MET ECD pre-incubated with the antibody; blocked ligand HGF

Row | IC50 (read off the curve) [nM] | Binder
47 | ~8 | B1
48 | ~6 | B2

biological target: T2, EGFR on cells; test: flow cytometry at 300 nM on mixed EBC-1 and T47D (low EGFR, no c-MET) cells, anti-human Fc detection; T47D population

Row | binding result | Binder
49 | binds | B7

biological target: T1, c-MET on cells; test: flow cytometry, SK-MEL2 cells (c-MET+ EGFR-)

Row | MFI at 100 nM | binding result | Binder
50 | 213 |  | B1
51 | 272 |  | B2
52 | 39 |  | B3
53 | 17 | no binding (tested: 100 nM) | B4
54 | 20 | no binding (tested: 100 nM) | B5
55 | 164 |  | B6
56 | 341 |  | B7
57 | 222 |  | B8

biological target: T6, c-MET (hepatocyte growth factor receptor) on A549 cells (human, UniProt P08581 25-1390); test: flow cytometry, A549 cells (c-MET+ EGFR++)
T6 construct: whole, on cells; Endogenous receptor of A549 cells; phosphorylation read out in cell lysates; also called HGFR

Row | MFI at 100 nM | Binder
58 | 147 | B1
59 | 91 | B2
60 | 130 | B3

biological target: T7, EGFR (epidermal growth factor receptor) on A549 cells (human, UniProt P00533 25-1210); test: flow cytometry, A549 cells (c-MET+ EGFR++)
T7 construct: whole, on cells; Endogenous receptor of A549 cells; phosphorylation read out in cell lysates

Row | MFI at 100 nM | Binder
61 | 170 | B4
62 | 184 | B5

biological target: T3, c-MET and EGFR co-expressed on cells; test: flow cytometry, A549 cells (c-MET+ EGFR++)

Row | MFI at 100 nM | Binder
63 | 292 | B6
64 | 249 | B7
65 | 335 | B8

Source: US20180326085A1 (Merck KGaA, published 2018)
